Assay results as given in paper PMC10371073.

B1: Fused in Sarcoma (FUS), endogenous wild type [human (endogenous in HEK293 and human fibroblasts)] / DNA Ligase IIIα (Lig3), mitochondrial form mtLig3 [human (endogenous in HEK293 and human fibroblasts)] (parent)
chain 1: MASNDYTQQATQSYGAYPTQPGQGYSQQSSQPYGQQSYSGYSQSTDTSGYGQSSYSSYGQSQNTGYGTQSTPQGYGSTGGYGSSQSSQSSYGQQSSYPGYGQQPAPSSTSGSYGSSSQSSSYGQPQSGSYSQQPSYGGQQQSYGQQQSYNPPQGYGQQNQYNSSSGGGGGGGGGGNYGQDQSSMSSGGGSGGGYGNQDQSGGGGSGGYGQQDRGGRGRGGSGGGGGGGGGGYNRSSGGYEPRGRGGGRGGRGGMGGSDRGGFNKFGGPRDQGSRHDSEQDNSDNNTIFVQGLGENVTIESVADYFKQIGIIKTNKKTGQPMINLYTDRETGKLKGEATVSFDDPPSAKAAIDWFDGKEFSGNPIKVSFATRRADFNRGGGNGRGGRGRGGPMGRGGYGGGGSGGGGRGGFPSGGGGGGGQQRAGDWKCPNPTCENMNFSWRNECNQCKAPKPDGPGGGPGGSHMGGNYGDDRRGGRGGYDRGGYRGRGGDRGGFRGGRGGGDRGGFGPGKMDSRGEHRQDRRERPY
chain 2: LLHGHPLFLRRKPVLSFQGSHLRSRATYLVFLPGLHVGLCSGPCEMAEQRFCVDYAKRGTAGCKKCKEKIVKGVCRIGKVVPNPFSESGGDMKEWYHIKCMFEKLERARATTKKIEDLTELEGWEELEDNEKEQITQHIADLSSKAAGTPKKKAVVQAKLTTTGQVTSPVKGASFVTSTNPRKFSGFSAKPNNSGEAPSSPTPKRSLSSSKCDPRHKDCLLREFRKLCAMVADNPSYNTKTQIIQDFLRKGSAGDGFHGDVYLTVKLLLPGVIKTVYNLNDKQIVKLFSRIFNCNPDDMARDLEQGDVSETIRVFFEQSKSFPPAAKSLLTIQEVDEFLLRLSKLTKEDEQQQALQDIASRCTANDLKCIIRLIKHDLKMNSGAKHVLDALDPNAYEAFKASRNLQDVVERVLHNAQEVEKEPGQRRALSVQASLMTPVQPMLAEACKSVEYAMKKCPNGMFSEIKYDGERVQVHKNGDHFSYFSRSLKPVLPHKVAHFKDYIPQAFPGGHSMILDSEVLLIDNKTGKPLPFGTLGVHKKAAFQDANVCLFVFDCIYFNDVSLMDRPLCERRKFLHDNMVEIPNRIMFSEMKRVTKALDLADMITRVIQEGLEGLVLKDVKGTYEPGKRHWLKVKKDYLNEGAMADTADLVVLGAFYGQGSKGGMMSIFLMGCYDPGSQKWCTVTKCAGGHDDATLARLQNELDMVKISKDPSKIPSWLKVNKIYYPDFIVPDPKKAAVWEITGAEFSKSEAHTADGISIRFPRCTRIRDDKDWKSATNLPQLKELYQLSKEKADFTVVAGDEGSSTTGGSSEENKGPSGSAVSRKAPSKPSASTKKAEGKLSNSNSKDGNMQTAKPSAMKVGEKLATKSSPVKVGEKRKAADETLCQTKVLLDIFTGVRLYLPPSTPDFSRLRRYFVAFDGDLVQEFDMTSATHVLGSRDKNPAAQQVSPEWIWACIRKRRLVAPC

Variants of: B1
Test: proximity ligation assay (PLA) in control and patient derived fibroblasts
Conditions: with DNA Ligase IIIα (Lig3), GO treatment (100ng/ml for 1 hr) per legend, the box plot does not say whether control or GO-treated cells were counted, parent: 64, read off a plot

| Variant | response (PLA foci/cell) |
| --- | --- |
| chain 1 MASNDYTQQATQSYGAYPTQPGQGYSQQSSQPYGQQSYSGYSQSTDTSGYGQSSYSSYGQSQNTGYGTQSTPQGYGSTGGYGSSQSSQSSYGQQSSYPGYGQQPAPSSTSGSYGSSSQSSSYGQPQSGSYSQQPSYGGQQQSYGQQQSYNPPQGYGQQNQYNSSSGGGGGGGGGGNYGQDQSSMSSGGGSGGGYGNQDQSGGGGSGGYGQQDRGGRGRGGSGGGGGGGGGGYNRSSGGYEPRGRGGGRGGRGGMGGSDRGGFNKFGGPRDQGSRHDSEQDNSDNNTIFVQGLGENVTIESVADYFKQIGIIKTNKKTGQPMINLYTDRETGKLKGEATVSFDDPPSAKAAIDWFDGKEFSGNPIKVSFATRRADFNRGGGNGRGGRGRGGPMGRGGYGGGGSGGGGRGGFPSGGGGGGGQQRAGDWKCPNPTCENMNFSWRNECNQCKAPKPDGPGGGPGGSHMGGNYGDDRRGGRGGYDRGGYRGRGGDRGGFRGGRGGGDRGGFGPGKMDSRGEHRQDHRERPY [chain 1 R521H] | 19 |
| chain 1 MASNDYTQQATQSYGAYPTQPGQGYSQQSSQPYGQQSYSGYSQSTDTSGYGQSSYSSYGQSQNTGYGTQSTPQGYGSTGGYGSSQSSQSSYGQQSSYPGYGQQPAPSSTSGSYGSSSQSSSYGQPQSGSYSQQPSYGGQQQSYGQQQSYNPPQGYGQQNQYNSSSGGGGGGGGGGNYGQDQSSMSSGGGSGGGYGNQDQSGGGGSGGYGQQDRGGRGRGGSGGGGGGGGGGYNRSSGGYEPRGRGGGRGGRGGMGGSDRGGFNKFGGPRDQGSRHDSEQDNSDNNTIFVQGLGENVTIESVADYFKQIGIIKTNKKTGQPMINLYTDRETGKLKGEATVSFDDPPSAKAAIDWFDGKEFSGNPIKVSFATRRADFNRGGGNGRGGRGRGGPMGRGGYGGGGSGGGGRGGFPSGGGGGGGQQRAGDWKCPNPTCENMNFSWRNECNQCKAPKPDGPGGGPGGSHMGGNYGDDRRGGRGGYDRGGYRGRGGDRGGFRGGRGGGDRGGFGPGKMDSRGEHRQDRRERLY [chain 1 P525L] | 20 |
